B1: Ab632 anti-SNAP25197 rMAb (Human-3C1A5) (antibody)
heavy: not shown
light: DVVMTQTPLTLSVTIGQPASISCKSSQSLLNTNGKTYLTWLIQRPGQSPQRLIYLVSKLDSGVPDRFSGSGSGTDFTLKISRVEAEDLGVYYCLQSSHFPFTFGSGTKLEIKRTVAAPSVFIFPPSDEQLKSGTASVVCLLNNFYPREAKVQWKVDNALQSGNSQESVTEQDSKDSTYSLSSTLTLSKADYEKHKVYACEVTHQGLSSPVTKSFNRGEC
B2: Ab635 anti-SNAP25197 rMAb (Murine-3C1A5) (antibody)
heavy: QVKLQESGAELVKPGASVKISCKASGYTFTDHSIHWVKQKPGQGLEWIGYLFPGNGNFEYNEKFKGKATLTADKSSSTVYMYLNSLTSEDSAVYFCKRMGYWGQGTTVTVSSAKTTPPSVYPLAPGSAAQTNSMVTLGCLVKGYFPEPVTVTWNSGSLSSGVHTFPAVLESDLYTLSSSVTVPSSPRPSETVTCNVAHPASSTKVDKKIVPRDCGCKPCICTVPEVSSVFIFPPKPKDVLTITLTPKVTCVVVDISKDDPEVQFSWFVDDVEVHTAQTQPREEQFNSTFRSVSELPIMHQDWLNGKEFKCRVNSAAFPAPIEKTISKTKGRPKAPQVYTIPPPKEQMAKDKVSLTCMITDFFPEDITVEWQWNGQPAENYKNTQPIMNTNGSYFVYSKLNVQKSNWEAGNTFTCSVLHEGLHNHHTEKSLSHSPGK
light: not shown
B3: original non-recombinant 3C1A5 mAb purified from ascites (antibody, V domains shown)
VH: QVKLQESGAELVKPGASVKISCKASGYTFTDHSIHWVKQKPGQGLEWIGYLFPGNGNFEYNEKFKGKATLTADKSSSTVYMYLNSLTSEDSAVYFCKRMGYWGQGTTVTVSS
VL: DVVMTQTPLTLSVTIGQPASISCKSSQSLLNTNGKTYLTWLIQRPGQSPQRLIYLVSKLDSGVPDRFSGSGSGTDFTLKISRVEAEDLGVYYCLQSSHFPFTFGSGTKLEIK

Legend:
[1] = molecular target: T1, SNAP25198, BoNT/C-cleaved SNAP25 (human) (human, UniProt P60880 1-198); assay: Western blot, SiMa cell lysates treated with BoNT/A, BoNT/C, BoNT/E or no toxin
T1 construct: range 1-198
T1 sequence (P60880 1-198 limits assumed): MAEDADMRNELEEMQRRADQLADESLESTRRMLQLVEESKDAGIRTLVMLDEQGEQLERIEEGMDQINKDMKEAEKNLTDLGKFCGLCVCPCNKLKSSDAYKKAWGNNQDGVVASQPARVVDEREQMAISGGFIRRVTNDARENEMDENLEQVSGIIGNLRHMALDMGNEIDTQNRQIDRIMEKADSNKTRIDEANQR

[2] = molecular target: T2, SNAP25206, full-length SNAP25 (human) (human, UniProt P60880 1-206); assay: as above
T2 sequence (P60880 whole entry): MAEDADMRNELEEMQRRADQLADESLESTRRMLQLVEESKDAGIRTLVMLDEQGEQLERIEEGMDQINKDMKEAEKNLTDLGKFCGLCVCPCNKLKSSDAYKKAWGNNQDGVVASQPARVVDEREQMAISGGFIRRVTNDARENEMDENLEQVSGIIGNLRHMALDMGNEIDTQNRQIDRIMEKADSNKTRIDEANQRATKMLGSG

[3] = molecular target: T3, SNAP25180, BoNT/E-cleaved SNAP25 (human) (human, UniProt P60880 1-180); assay: as above
T3 construct: range 1-180
T3 sequence (P60880 1-180 limits assumed): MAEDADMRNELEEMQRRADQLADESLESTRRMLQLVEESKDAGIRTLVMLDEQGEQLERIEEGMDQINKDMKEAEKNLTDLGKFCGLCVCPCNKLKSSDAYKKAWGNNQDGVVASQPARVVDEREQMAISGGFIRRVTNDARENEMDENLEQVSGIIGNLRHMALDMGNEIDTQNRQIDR

[4] = molecular target: SNAP25197, BoNT/A-cleaved SNAP25 (rat) (rat, UniProt P60881 1-197); assay: Western blot, summary (rat cortical lysates; SiMa lysates also run)
Chain of SNAP25197, BoNT/A-cleaved SNAP25 (rat) (P60881 1-197 limits assumed): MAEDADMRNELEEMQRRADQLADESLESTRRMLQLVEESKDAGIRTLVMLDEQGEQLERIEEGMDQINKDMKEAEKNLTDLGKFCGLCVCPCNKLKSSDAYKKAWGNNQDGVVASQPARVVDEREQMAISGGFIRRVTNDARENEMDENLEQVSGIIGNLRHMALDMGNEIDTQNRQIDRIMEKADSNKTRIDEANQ

[5] = molecular target: SNAP25197, BoNT/A-cleaved SNAP25 (human) (human, UniProt P60880 1-197); assay: Western blot, SiMa cell lysates +/- BoNT/A
Chain of SNAP25197, BoNT/A-cleaved SNAP25 (human) (P60880 1-197 limits assumed): as the sequence (P60881 1-197 limits assumed) above

[6] = molecular target: T4, SNAP25206, full-length SNAP25 (rat) (rat, UniProt P60881 1-206); assay: Western blot, rat embryonic cortical cell lysates +/- BoNT/A
T4 sequence (P60881 whole entry): as the sequence (P60880 whole entry) above

[7] = molecular target: T2, SNAP25206, full-length SNAP25 (human); assay: IHC, human back skin biopsies +/- onabotulinumtoxinA (FIG. 9)
[8] = molecular target: T4, SNAP25206, full-length SNAP25 (rat); assay: IHC, vehicle-treated rat glabrous skin (FIG. 8F-J)

Binder	binding result [1]	binding result [2]	binding result [3]	binding result [4]	binding result [5]	binding result [6]	binding result [7]	binding result [8]
B1	no binding	no binding	no binding	binds	binds	no binding		
B2						no binding	no binding	
B3								no binding

Reference: patent publication US20190317095A1 (ALLERGAN, published 2019)
